Numbered stars: 1 amine (or outer) side, 2 acyl side, 3 side chain; on linkers, the order of the positions; unused ones are H or OH. Bridge positions count the residues as written; N and C are the ends. Square brackets hold non-standard residues; d marks the D form. Side chains are listed from the residue outwards. Ends that are not written are not given here. * marks the point of attachment. C20 diacid = O=C(O)CCCCCCCCCCCCCCCCCCC(=O)*; γGlu = O=C(O)[C@H](CCC(=O)[*:2])N[*:1]; αMeF = C[C@](N)(Cc1ccccc1)C(=O)O; NMeD = CN[C@@H](CC(=O)O)C(=O)O; NMeN = CN[C@@H](CC(N)=O)C(=O)O; αMeL = CC(C)C[C@](C)(N)C(=O)O; Orn = NCCC[C@H](N)C(=O)O; AEEA = NCCOCCOCC(=O)O; CH2 = C([*:1])[*:2]
T1: human calcitonin receptor (hCTR) (human, UniProt P30988 25-474)
T1 sequence (looked up): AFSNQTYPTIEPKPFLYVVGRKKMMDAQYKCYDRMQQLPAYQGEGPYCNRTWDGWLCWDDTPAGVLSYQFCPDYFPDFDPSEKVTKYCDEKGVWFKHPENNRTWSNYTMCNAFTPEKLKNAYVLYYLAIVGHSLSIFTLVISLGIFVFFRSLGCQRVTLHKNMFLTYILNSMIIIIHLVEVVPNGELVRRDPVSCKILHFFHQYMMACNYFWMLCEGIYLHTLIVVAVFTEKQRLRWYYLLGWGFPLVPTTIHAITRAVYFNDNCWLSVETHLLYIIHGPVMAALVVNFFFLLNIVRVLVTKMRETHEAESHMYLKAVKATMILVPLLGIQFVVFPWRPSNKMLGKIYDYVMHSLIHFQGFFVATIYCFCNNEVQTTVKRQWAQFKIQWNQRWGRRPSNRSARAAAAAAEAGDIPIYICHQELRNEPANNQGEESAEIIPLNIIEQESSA


Columns and labels:
[1] = target: T2, human amylin receptor 1 (hAMY1R): human calcitonin receptor co-expressed with human RAMP1 in UMUC3 cells (human, UniProt P30988 25-474; O60894 27-148); assay: cell-based or functional assay
T2 sequence (O60894 27-148, chain 2 of 2, one chain of several): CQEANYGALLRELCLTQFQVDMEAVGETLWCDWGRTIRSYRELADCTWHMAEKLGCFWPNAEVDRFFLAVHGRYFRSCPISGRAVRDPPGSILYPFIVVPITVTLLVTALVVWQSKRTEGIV

[2] = target: T1, human calcitonin receptor (hCTR); assay: cell-based or functional assay
[3] = target: T1, human calcitonin receptor (hCTR); assay: competitive radioligand binding filter assay, hCTR membranes, displacement of 125I-hCT
[4] = target: T2, human amylin receptor 1 (hAMY1R): human …; assay: competitive radioligand binding filter assay, hAMY1R membranes, displacement of 125I-rAMY
Procedure: The equilibrium dissociation constants (Kd) for the various receptor/radioligand interactions are determined from saturation binding analysis using the same reagents and buffers as described below for compound testing.
Binding reactions are carried out in 0.1 mL total reaction volume in a polystyrene 96 deep-well assay block. […] The binding reaction is initiated by the addition of 0.05 mL of 200 μg/mL hAMY1R diluted in assay buffer to the radioactivity. Assay blocks are gently vortexed, sealed with parafilm, and incubated at RT for approximately 20 hours.

Binder	hAMYIR cAMP EC50 [1] [pM]	hCTR cAMP EC50 [2] [nM]	Ki [3] [nM]	Ki [4] [nM]
KCETATCATG[Orn]LAE[αMeF]LVRSSN[NMeD]FGPILPPTEVGSNTY-NH2 (bridge 2-7 via CH2) [Compound V]	139	17	–	–
[γGlu]CNTATCATGKLAEFLVRSSNNFGPK([γGlu-AEEA-AEEA-C20 diacid])LPPTEVGSNTY-NH2 (bridge 2-7 via CH2) [Compound X]	80	14	–	–
K([γGlu-γGlu-C20 diacid])CETATCATG[Orn][αMeL]AEFLVRSSHNFGPILPPTEVGSNTY-NH2 (bridge 2-7 via CH2, Acylated form of Compound VII) [Compound VIII]	107	9.69	927	0.0435
[γGlu]CNTATCATG[Orn]LAE[αMeF]LVRSSN[NMeD]FGPKLPPTEVGSNTY-NH2 (bridge 2-7 via CH2) [Compound III]	156	16.3	–	–
[γGlu]CNTATCATQ[Orn]LAEFLVRSSNNFGPK([AEEA-AEEA-γGlu-C20 diacid])LPPTEVGSNTY-NH2 (bridge 2-7 via CH2) [Compound XII]	113	25.9	–	–
KCETATCATG[Orn][αMeL]AEFLVRSSHNFGPILPPTEVGSNTY-NH2 (bridge 2-7 via CH2) [Compound VII]	173	11.9	–	–
[γGlu]CNTATCATG[Orn]LAE[αMeF]LVRSSN[NMeD]FGPK([γGlu-γGlu-C20 diacid])LPPTEVGSNTY-NH2 (bridge 2-7 via CH2, Acylated form of Compound III) [Compound IV]	107	6.14	665	0.0296
K([γGlu-γGlu-C20 diacid])CETATCATG[Orn]LAE[αMeF]LVRSSN[NMeD]FGPILPPTEVGSNTY-NH2 (bridge 2-7 via CH2, Acylated form of Compound V) [Compound VI]	107	13.2	235	0.0445
[γGlu]CNTATCATGKLAEFLVRSSNNFGPK([AEEA-AEEA-γGlu-C20 diacid])LPPTEVGSNTY-NH2 (bridge 2-7 via CH2) [Compound IX]	132	18.9	–	–
[γGlu]CNTATCATGKLAEFLVRSSNNFGPK([γGlu-γGlu-AEEA-C20 diacid])LPPTEVGSNTY-NH2 (bridge 2-7 via CH2) [Compound XI]	38	10.5	–	–
[γGlu]CNTATCATG[Orn]LAE[αMeF]LVRSSN[NMeN]FGPKLPPTEVGSNTY-NH2 (bridge 2-7 via CH2) [Compound I]	133	18	–	–
[γGlu]CNTATCATG[Orn]LAE[αMeF]LVRSSN[NMeN]FGPK([γGlu-γGlu-C20 diacid])LPPTEVGSNTY-NH2 (bridge 2-7 via CH2, Acylated form of Compound I) [Compound II]	75	2.34	202	0.017
[γGlu]CGTATCATG[Orn]LAEFLVRSSNNFGPK([γGlu-γGlu-C20 diacid])LPPTEVGSNTY-NH2 (bridge 2-7 via CH2) [Compound XIII]	78	9.49	–	–

Source: US20220288168A1 (Eli Lilly, published 2022)
